From PMC5410052

Experiments:
[1] = biological target: human MMP-7 (matrilysin) (human) (UniProt P09237); assay: enzyme inhibition assay (quenched fluorescent peptide substrate); 60/60/250/500 nM MMP-1/-2/-7/-14cd incubated with 0.98-1000 nM (N-)TIMPs for 30 min at room temperature, then 1 uM M-2350 substrate; KI from the equation for slow tight-binding inhibitors
[2] = biological target: human MMP-1 (collagenase 1) (human) (UniProt P03956); assay: as above
[3] = biological target: human MMP-2 (gelatinase A) (human) (UniProt P08253); assay: as above
Chain of UniProt P08253 (P08253 110-660): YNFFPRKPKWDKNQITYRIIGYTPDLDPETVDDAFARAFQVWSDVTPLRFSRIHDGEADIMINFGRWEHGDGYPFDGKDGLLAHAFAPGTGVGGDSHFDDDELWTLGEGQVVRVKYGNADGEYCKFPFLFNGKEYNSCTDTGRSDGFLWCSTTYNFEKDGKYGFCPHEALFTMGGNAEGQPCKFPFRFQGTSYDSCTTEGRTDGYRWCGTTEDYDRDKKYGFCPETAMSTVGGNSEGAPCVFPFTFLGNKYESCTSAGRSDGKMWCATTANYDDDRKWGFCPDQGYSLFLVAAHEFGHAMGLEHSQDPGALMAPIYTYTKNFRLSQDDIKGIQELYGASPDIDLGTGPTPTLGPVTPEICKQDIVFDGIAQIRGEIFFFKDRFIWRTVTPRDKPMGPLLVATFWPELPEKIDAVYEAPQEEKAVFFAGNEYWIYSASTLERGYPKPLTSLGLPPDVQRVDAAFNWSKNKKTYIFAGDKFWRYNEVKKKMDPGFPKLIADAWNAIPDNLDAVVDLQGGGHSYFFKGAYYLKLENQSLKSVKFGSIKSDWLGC

[4] = biological target: human MMP-7 (matrilysin) (human) (UniProt P09237)
[5] = biological target: human MMP-1 (collagenase 1) (human) (UniProt P03956)
[6] = biological target: human MMP-2 (gelatinase A) (human) (UniProt P08253)
[7] = biological target: catalytic domain of human MMP-14 (cdMMP-14) (human) (UniProt P50281)
[8] = biological target: catalytic domain of human MMP-14 (cdMMP-14) (human) (UniProt P50281); assay: enzyme inhibition assay (quenched fluorescent peptide substrate); 60/60/250/500 nM MMP-1/-2/-7/-14cd incubated with 0.98-1000 nM (N-)TIMPs for 30 min at room temperature, then 1 uM M-2350 substrate; KI from the equation for slow tight-binding inhibitors

Chain of UniProt P03956 (P03956 100-469): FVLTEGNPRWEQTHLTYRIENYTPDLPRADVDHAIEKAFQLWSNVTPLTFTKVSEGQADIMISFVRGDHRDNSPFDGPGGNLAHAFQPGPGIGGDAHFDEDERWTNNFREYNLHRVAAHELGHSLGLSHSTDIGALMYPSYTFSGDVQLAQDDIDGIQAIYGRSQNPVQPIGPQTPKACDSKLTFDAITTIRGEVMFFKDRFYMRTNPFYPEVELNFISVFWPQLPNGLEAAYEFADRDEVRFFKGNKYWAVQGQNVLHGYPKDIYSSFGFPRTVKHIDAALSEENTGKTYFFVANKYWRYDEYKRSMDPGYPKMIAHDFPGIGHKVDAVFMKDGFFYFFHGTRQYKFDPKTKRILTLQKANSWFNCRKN
Chain of UniProt P09237 (P09237 95-267): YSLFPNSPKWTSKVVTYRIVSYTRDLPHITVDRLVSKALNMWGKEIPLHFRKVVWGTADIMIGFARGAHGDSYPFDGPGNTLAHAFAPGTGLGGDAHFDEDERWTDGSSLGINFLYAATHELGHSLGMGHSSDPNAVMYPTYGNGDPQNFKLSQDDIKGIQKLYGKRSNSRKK

| Substance | Ki [1] [nM] | Ki [2] [nM] | Ki [3] [nM] | IC50 of inhibition of MMP-7 cleavage of a quenched fluorescent peptide substrate [4] [nM] | IC50 of inhibition of MMP-1 cleavage of a quenched fluorescent peptide substrate [5] [nM] | IC50 of inhibition of MMP-2 cleavage of a quenched fluorescent peptide substrate [6] [nM] | IC50 of inhibition of cdMMP-14 cleavage of a quenched fluorescent peptide substrate [7] [nM] | Ki [8] [nM] |
| --- | --- | --- | --- | --- | --- | --- | --- | --- |
| N-terminal domain of human TIMP-1 (N-TIMP-1) (domain or fragment) | 4.62 | 7.21 | 11 |  |  |  |  |  |
| N-terminal domain of human TIMP-2 (N-TIMP-2) (domain or fragment) | 2.86 | 0.65 | 0.8 | 38 | 3 | 6 | 72 | 3.96 |
